Target: prp8_yeast PRP8 (UniProt P33334)
Sequence (P33334 whole entry): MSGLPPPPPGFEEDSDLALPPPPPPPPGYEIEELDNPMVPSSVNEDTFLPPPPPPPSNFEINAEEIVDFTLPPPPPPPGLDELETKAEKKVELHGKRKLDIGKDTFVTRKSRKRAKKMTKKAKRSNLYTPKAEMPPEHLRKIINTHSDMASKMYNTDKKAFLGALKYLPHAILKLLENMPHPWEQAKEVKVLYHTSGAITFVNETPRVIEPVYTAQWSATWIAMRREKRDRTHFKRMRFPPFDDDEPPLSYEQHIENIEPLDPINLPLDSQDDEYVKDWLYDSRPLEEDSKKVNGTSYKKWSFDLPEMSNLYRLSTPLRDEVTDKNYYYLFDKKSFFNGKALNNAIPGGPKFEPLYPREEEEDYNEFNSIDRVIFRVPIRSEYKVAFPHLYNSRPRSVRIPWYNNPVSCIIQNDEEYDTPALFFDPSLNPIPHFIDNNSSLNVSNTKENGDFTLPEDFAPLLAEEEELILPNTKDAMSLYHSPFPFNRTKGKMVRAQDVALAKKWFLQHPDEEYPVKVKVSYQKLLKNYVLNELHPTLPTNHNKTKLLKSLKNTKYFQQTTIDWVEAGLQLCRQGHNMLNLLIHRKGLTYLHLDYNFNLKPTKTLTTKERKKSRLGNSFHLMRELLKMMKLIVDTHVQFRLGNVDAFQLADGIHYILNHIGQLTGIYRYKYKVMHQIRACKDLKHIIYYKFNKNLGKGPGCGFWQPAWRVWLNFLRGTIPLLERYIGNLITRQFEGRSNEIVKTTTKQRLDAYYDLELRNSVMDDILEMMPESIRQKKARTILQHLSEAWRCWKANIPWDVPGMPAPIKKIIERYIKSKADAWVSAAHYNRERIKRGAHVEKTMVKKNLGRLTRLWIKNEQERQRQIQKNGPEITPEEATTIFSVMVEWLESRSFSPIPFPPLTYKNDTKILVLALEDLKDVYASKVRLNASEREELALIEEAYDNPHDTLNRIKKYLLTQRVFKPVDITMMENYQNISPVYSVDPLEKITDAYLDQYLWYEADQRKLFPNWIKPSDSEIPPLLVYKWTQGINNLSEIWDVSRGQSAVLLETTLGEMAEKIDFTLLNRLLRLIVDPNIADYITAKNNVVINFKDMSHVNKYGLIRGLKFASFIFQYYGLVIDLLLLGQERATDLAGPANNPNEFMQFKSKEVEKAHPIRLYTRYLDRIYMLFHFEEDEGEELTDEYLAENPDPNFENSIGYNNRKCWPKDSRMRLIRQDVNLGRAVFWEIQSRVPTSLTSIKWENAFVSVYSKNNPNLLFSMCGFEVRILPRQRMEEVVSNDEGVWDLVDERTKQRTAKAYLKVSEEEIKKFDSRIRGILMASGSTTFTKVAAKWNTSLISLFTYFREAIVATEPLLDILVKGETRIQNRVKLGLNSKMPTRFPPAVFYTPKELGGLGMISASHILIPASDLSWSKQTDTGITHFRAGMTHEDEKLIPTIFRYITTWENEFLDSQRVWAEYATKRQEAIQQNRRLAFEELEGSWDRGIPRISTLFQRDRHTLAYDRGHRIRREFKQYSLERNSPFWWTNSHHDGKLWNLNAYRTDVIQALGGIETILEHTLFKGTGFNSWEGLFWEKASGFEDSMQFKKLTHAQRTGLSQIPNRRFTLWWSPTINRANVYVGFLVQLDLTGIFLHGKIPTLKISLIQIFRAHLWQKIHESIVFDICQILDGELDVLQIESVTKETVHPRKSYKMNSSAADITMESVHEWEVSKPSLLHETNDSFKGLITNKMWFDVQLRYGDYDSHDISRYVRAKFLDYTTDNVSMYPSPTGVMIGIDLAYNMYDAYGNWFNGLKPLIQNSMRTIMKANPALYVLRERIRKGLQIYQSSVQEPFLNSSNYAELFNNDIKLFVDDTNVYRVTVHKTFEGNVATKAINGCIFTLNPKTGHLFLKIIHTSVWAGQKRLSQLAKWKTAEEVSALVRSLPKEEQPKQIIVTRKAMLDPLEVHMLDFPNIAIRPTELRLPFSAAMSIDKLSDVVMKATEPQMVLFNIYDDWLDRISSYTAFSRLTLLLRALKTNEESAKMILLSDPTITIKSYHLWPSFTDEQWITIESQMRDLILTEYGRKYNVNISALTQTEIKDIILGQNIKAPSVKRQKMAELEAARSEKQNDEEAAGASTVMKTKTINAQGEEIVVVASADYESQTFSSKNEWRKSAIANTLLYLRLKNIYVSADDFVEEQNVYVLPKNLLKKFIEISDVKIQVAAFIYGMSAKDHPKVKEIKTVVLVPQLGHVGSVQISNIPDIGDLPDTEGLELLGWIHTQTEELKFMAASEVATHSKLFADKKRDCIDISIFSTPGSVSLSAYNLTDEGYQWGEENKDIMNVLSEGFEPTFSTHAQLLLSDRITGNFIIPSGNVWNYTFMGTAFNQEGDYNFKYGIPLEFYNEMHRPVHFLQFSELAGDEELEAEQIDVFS

- effect of a mutation on the interaction: decreasing interaction strength
Substance: Pre-mRNA-splicing helicase BRR2 (Saccharomyces cerevisiae), P32639 D1247A;D1249A

Reference: IntAct's records for PubMed 23727230
